One experiment addresses T1, human P-selectin/IgG-Fc (Homo sapiens, UniProt P16109).
T1 construct: purchased R&D Systems Europe Ltd., Abingdon, United Kingdom
In words: Competition assay: displacement of TM11-PO complex from immobilised human P-selectin/IgG-Fc. The format is binding. The note with it: competition with TM11-PO; free peptide; read-out: IC50 (affinity for P-selectin). How it is done:
(§1) TM11-PO, a tetrameric TM11/strepPO complex described by Molenaar et al. (Blood 100: 3570-3577 (2002)), was freshly prepared by incubating streptavidin-peroxidase (Amersham Life Science, Little Chalfont, United Kingdom) (strep-PO; 8.4 μl, 2.0 μM) and biotin-CDVEWVDVSSLEWDLPC (SEQ ID NO: 2; synthesized by Dr. Vander Zee, Department of Immunology, University of Utrecht, Utrecht, the Netherlands) (TM11-biotin; 1.5 μl 190 mM) for 2 hours at room temperature in assay buffer (20 mM HEPES, 150 mM NaCl, 1 mM CaCl2, pH 7.4). For competition studies, a 96 wells microtiter plate (high binding, flat bottom, Costar, Corning, U.S.A) was coated overnight at 4° C. with 10 μg/ml goat anti-human IgG (Sigma-Aldrich, Zwijndrecht, the Netherlands) in coating buffer (50 mM NaHCO3, pH 9.6). Subsequently, wells were washed with assay buffer and incubated for 1 hour at 37° C. with blocking buffer (3% BSA in assay buffer). After washing with assay buffer the wells were incubated for 2 hours at 37° C. with human P-selectin/IgG-Fc (R&D Systems Europe Ltd., Abingdon, United Kingdom) (0.3 μg/ml). Subsequently, wells were washed with assay buffer and incubated for 1 hour at 4° C. with the TM11-PO complex. The wells were washed six times with washing buffer (0.1% Tween 20 in assay buffer). […] The reaction was halted by addition of 2 M H2SO4 and the absorbance was measured at 450 nm.

The target of experiment [1] is T2, human P-selectin/IgG-Fc (R&D Systems) (human), P16109.
T2 chain: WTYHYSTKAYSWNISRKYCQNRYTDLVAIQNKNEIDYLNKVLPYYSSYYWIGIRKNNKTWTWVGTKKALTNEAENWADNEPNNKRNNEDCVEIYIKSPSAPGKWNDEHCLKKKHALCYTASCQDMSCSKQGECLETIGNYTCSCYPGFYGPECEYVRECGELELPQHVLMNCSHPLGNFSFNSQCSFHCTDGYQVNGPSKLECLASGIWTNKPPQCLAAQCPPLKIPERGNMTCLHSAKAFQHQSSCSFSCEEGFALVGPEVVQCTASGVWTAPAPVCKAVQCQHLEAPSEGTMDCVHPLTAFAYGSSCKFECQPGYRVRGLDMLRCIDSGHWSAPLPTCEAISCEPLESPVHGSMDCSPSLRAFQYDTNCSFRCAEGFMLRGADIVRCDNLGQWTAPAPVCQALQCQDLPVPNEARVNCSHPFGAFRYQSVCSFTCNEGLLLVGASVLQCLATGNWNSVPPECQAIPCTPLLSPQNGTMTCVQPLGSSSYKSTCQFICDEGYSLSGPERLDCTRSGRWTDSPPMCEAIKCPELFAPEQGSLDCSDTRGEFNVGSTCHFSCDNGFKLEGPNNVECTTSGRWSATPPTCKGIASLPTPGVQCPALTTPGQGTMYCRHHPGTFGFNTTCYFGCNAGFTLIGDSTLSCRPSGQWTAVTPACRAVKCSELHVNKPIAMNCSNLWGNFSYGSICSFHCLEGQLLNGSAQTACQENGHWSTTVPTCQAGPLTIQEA
Briefly: competition ELISA against TM11-PO on captured human P-selectin/IgG-Fc. For orientation: In an ELISA, binding on a coated surface is turned into a signal by an enzyme label.

Experiment [2] concerns the target T3, human P-selectin on CHO cells stably transfected with human P-selectin (CHO-P cells) (human, UniProt P16109 42-830).
T3 sequence (looked up): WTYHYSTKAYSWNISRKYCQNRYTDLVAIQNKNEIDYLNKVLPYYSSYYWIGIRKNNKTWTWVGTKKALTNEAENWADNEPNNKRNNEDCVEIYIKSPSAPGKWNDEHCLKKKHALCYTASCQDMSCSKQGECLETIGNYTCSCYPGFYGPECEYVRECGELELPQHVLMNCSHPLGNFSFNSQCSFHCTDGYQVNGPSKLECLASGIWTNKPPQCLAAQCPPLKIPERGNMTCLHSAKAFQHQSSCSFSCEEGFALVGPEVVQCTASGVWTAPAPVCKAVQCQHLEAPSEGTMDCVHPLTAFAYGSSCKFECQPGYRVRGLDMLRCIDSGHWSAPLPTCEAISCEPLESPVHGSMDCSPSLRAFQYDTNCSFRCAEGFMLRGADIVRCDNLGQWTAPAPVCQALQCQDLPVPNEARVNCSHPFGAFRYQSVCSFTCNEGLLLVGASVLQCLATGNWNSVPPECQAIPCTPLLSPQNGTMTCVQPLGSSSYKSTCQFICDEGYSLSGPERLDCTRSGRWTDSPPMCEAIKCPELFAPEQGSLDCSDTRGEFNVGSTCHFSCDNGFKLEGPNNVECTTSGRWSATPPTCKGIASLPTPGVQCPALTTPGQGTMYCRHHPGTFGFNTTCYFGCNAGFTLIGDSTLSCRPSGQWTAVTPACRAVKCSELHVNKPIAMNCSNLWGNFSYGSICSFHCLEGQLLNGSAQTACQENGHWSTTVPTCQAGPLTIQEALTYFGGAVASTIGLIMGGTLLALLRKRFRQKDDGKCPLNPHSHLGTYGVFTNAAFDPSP
Briefly: cell-based or functional assay.

The target of experiment [3] is T4, human P-selectin/IgG-Fc (R&D Systems) (human, UniProt P16109 42-771).
T4 construct: It was captured on plates coated with goat anti-human IgG; not shown: IgG Fc; it was captured by goat anti-human IgG
T4 sequence (looked up): T2 chain
In words: competition ELISA against TM11-PO on captured human P-selectin/IgG-Fc. How it is done: as §1, with “The affinity of the liposomal drug delivery system prepared in example 2 was evaluated using a competition assay. TM11-PO,” for “TM11-PO,”, “biotin-[…]” for “biotin-CDVEWVDVSSLEWDLPC”, “CaCl_2,” for “CaCl2,”, “NaHCO_3,” for “NaHCO3,”, “complex.” for “complex. The wells were washed six times with washing buffer (0.1% Tween 20 in assay buffer).”, “H_2SO_4” for “H2SO4”

This is an account of results in US8003596B2, “P-selectin targeting ligand and compositions thereof” (Astellas Pharma Inc., priority 2003, dated 2011).

Where no end group is shown, it is not given here.

T1 sequence (P16109 with tags, fused parts or gaps limits assumed): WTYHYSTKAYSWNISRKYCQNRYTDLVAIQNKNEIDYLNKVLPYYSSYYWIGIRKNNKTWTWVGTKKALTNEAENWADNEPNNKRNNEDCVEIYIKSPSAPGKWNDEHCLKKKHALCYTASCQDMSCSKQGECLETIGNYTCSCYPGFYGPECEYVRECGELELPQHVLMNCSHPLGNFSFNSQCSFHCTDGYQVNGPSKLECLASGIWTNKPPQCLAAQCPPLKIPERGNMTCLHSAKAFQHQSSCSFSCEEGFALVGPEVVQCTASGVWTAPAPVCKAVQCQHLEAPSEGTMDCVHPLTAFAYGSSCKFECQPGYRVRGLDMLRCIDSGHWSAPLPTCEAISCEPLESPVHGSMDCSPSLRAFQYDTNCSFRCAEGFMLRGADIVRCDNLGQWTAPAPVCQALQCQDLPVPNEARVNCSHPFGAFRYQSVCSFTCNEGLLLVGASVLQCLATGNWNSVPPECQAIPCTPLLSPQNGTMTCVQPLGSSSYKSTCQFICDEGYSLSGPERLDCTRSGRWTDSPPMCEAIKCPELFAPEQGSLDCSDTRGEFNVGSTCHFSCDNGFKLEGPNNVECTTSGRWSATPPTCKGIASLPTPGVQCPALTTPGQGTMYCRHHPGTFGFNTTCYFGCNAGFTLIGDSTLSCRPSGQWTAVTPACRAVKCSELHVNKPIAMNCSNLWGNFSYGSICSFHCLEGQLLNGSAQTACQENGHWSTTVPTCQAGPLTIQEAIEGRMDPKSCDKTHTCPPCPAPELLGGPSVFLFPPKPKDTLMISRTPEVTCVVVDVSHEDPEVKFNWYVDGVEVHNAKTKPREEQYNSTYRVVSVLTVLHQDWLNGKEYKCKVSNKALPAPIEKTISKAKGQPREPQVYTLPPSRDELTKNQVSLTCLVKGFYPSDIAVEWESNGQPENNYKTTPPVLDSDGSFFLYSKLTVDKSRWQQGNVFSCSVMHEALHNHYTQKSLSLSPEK

“H-DVEWVDVSY-OH [Pstar, H2N-DVEWVDVSY-COOH]”: the IC50 (in general, the concentration that gives 50% inhibition) on human P-selectin/IgG-Fc worked out at 7 µM.

B1: human P-selectin binding peptide H2N-…-COOH (Pstar) (peptide)
peptide: DVEWVDVSY
modifications: not checked
Turning to B1, in experiment [1], the IC50 is 7 µM.

B2: P500 liposomes: liposomes carrying 500 DSPE-PEG3400-(125I)-Pstar conjugates per liposome (other)
peptide: DVEWVDVSY
modifications: not fully specified; also: 125I label (ICl method)
notes: About 70 nm EYPC/cholesterol liposome; The peptide-PEG-lipid conjugate is anchored in its surface together with DSPE-PEG2000 (5 mole % in total); also called LP500
As for B2, the “relative transfection (glucocorticoid responsive element-driven Firefly luciferase, corrected by Renilla luciferase) in CHO-P cells” value in experiment [2] was found to be 5 fold. The IC50 in experiment [3] worked out at 0.34 nM.

B3: P100 liposomes: liposomes carrying 100 DSPE-PEG3400-(125I)-Pstar conjugates per liposome (other)
peptide: DVEWVDVSY
modifications: not fully specified; also: 125I label (ICl method)
notes: About 70 nm EYPC/cholesterol liposome; The peptide-PEG-lipid conjugate is anchored in its surface together with DSPE-PEG2000 (5 mole % in total); also called LP100
In experiment [3], B3 registered an IC50 of 0.78 nM.
